Stoichiometry N data for 1 substance are collected here from paper doi:10.1101/2021.12.16.472980.

The target of this experiment is Suppressor of potassium transport defect 3 (SKD3), mature IMS form, residues 127-707 (human) (UniProt Q9H078). Put plainly: AUC.

One may read the stoichiometry N as the number of molecules, sites or subunits per partner or assembly. Take “Suppressor of potassium transport defect 3 (SKD3), mature IMS form, residues 127-707 (from UniProt Q9H078 127-707) (enzyme)”: the stoichiometry N came to 12.
